Key:
[1] = test system: E8 chick ciliary ganglion neurons; assay: Survival of dissociated E8 chick ciliary ganglion neurons; format: cell-based
Description: Ciliary neurotrophic factor activity may be evaluated using any CNTF-sensitive in vivo or in vitro system known in the art. For example, and not by way of limitation, in vitro systems have been developed which measure CNTF activity by quantitating 24-hour survival of embryonic (E8) chick ciliary ganglion (CG) neurons in monolayer cultures.
For example, ciliary ganglia may be collected from E8 chick embryos, dissociated (yielding approximately 20,000 cells per ganglion) and then diluted in HEBM medium containing 20 percent horse serum as described in Varon et al. (1979, Brain Res. 173:29-45). About fifty microliters of cell suspension containing neurons (2,000 cells) may then be seeded into microliter dishes and putative CNTF activity may be added. Culture plates may then be maintained at 37° C. in 5% CO2 for 24 hours, after which the cultures may be fixed by the addition of 200 μl 2 per cent glutaraldehyde in HEBM medium, and the number of surviving neurons may be determined visually by direct count under phase contrast microscopy.
Chick embryo ciliary ganglion cultures were created and maintained according to the method set forth in (Hughes et al., 1988, Nature 335 : 70-73).
(§1) Biological activity of recombinant CNTF was assayed on explants of chick embryo dorsal root ganglia (DRG) and dissociated cultures of ciliary ganglion (CG) neurons as described in Lindsay and Rohrer (1985, Devel. Biol 112:30-48). Briefly, DRG were dissected from chick embryos of 10 days incubation (E10) and 5-6 ganglia were explanted in 1 ml of a collagen gel matrix in 35 mm tissue culture dishes. After the gel had set, 1 ml of tissue culture growth medium F14 (Imperial Labs., U.K.) supplemented with 5% heat-inactivated horse serum (GIBCO) was added before adding human CNTF (1-20 l) to a final concentration of 100 pg to 100 ng/ml. CG were dissected from E8 chick embryos and incubated for 30 min in 0.25% trypsin (Worthington) in calcium- and magnesium-free phosphate buffered saline. The ganglia were then washed three times in F14 medium containing 5% horse serum before being dissociated to a single cell suspension by trituration through the bore of a Pasteur pipette. Enrichment for CG neurons was achieved by plating the cell suspension for 3.5 hr in a 60 mm dish, during which non-neuronal cells (fibroblasts and Schwann cells) attached firmly to the plastic while phase-bright neurons remained in suspension. The purified neurons were plated on polyornithine-laminin-coated 35 mm culture dishes at 8,000-10,000 neurons/dish. In explant cultures CNTF activity was determined by assessing the extent of fiber outgrowth in treated cultures compared to controls. Fiber outgrowth was scored on a scale of 0 to 5+, by comparing cultures to photographs of a dose-response of explanted DRG and NGF. In dissociated CG neuron cultures, CNTF activity was determined by counting at 48 hr the percentage of process-bearing neurons in control and CNTF-treated cultures. In all cases results were derived from triplicate cultures.

[2] = test system: dorsal root ganglia and/or dissociated ciliary neurons; assay: Biological activity of modified and truncated CNTF proteins (rapid bacterial extracts); format: cell-based, chick; details: soluble protein extracted from induced bacteria hosting each plasmid; compared with full length parental protein
Description: Samples for gel electrophoresis were prepared by resuspending cell pellets from 0.5 ml culture OD590=2 in 0.16 ml lysis buffer (100 mM TrisHCl, 10% glycerol, 4% sodium dodecyl sulfate, 1 mM dithiothreitol, 0.5 mg/ml bromophenol blue, pH 6.8) and boiling for 5 minutes.
as §1
Biological activity was assayed on dorsal root ganglia and/or dissociated ciliary neurons was determined as described in section 12.1.6. Soluble protein was extracted from induced bacteria hosting each plasmid by the “rapid” protein extraction method described in section 12.1.3.

[3] = test system: chick embryonic spinal motorneurons; assay: Survival of chick embryonic spinal motorneurons in culture; format: cell-based; set-up: key to Survival: −: not significantly different from control (survival: 8.3 ± 3.8%, mean ± SD, n = 18); ±: about 15-20% (statistically significant from each blank control, p < 0.01); + +: about 35-55%; + ++: about 55-75%; details: for Survival: after 3 days in culture, one concentration per molecule, Table VI, CNTF rat, rec.; for survival effect on motoneurons: supramaximal concentrations, NT-3 produced by transfected Cos-cells
Description: Motorneuron columns were dissected under a stereomicroscope from the lumbar part of the spinal cord of chick embryos on the 6th day of embryonic development and stored in cold calcium and magnesium-free Hanks balanced salt solution supplemented with glucose (4 g/l) (HBSS). The tissues were washed with HBSS and treated with 0.03% trypsin in HBSS at 37° C. for 20 min with gentle shaking, rinsed with cold HBSS and triturated mildly in 3 steps of 8-passage agitation in 1 ml of cold 0.1% soybean trypsin inhibitor (Sigma) in HBSS through a fire-polished siliconized Pasteur pipette. Each supernatant cell suspension was filtered through 50 μm-Nylon mesh, pooled and layered onto 4 ml of cold 6.8% metrizamide (Fluka) in HBSS-25 mM HEPES (pH7.4) in a 12 ml-siliconized conical glass tube. The tube was centrifuged at 400 g for 15 min at 4° C. and the intermediate layer (0.5 ml) was collected into another siliconized tube containing 6.5 ml of cold culture medium (a mixture of glucose (4 g/l)-supplemented Leibovitz's L-15 medium (Gibco), 0.15 M sodium bicarbonate, heat-inactivated and filtered horse serum and penicillin G (10^5 units/ml) at the ratio of 75:15:10:0.1, freshly prepared and buffered with 5% CO2.) After centrifugation at 100×g for 7 min at 4° C., the supernatant was removed and the cells were gently resuspended in culture medium and plated in Greiner 4-well culture dishes (well diameter, 10 mm; C. A. Greiner und Sohne GmbH, Nurtingen, West Germany) at 1000-2000 cells/well. The dishes had been precoated with poly-DL-ornithine (Sigma, 0.5 mg in 0.15 M sodium borate buffer (pH 8.3) overnight at 4° C., rinsed twice with phosphate-buffered saline (PBS) and subsequently coated with laminin (Gibco; 10 μg/ml in the serum-depleted culture medium) and placed in a 5% CO2-incubator until cell plating (5-6 hrs). Cells were incubated at 37° C. in a humidified 5% CO2- and 95% air-incubator. Samples were added one hr after plating and the culture medium changed after 24 hrs and 72 hrs. The initial cell numbers were counted 3 hrs after plating.
In some experiments motor neurons were retrogradely labeled with a fluorescent dye in vivo before cell preparation (U. Dohrman et al., 1986, Dev. Biol. 118:209-221) to identify the motor neuron cell population. A small hole was made in the shell of eggs which had been incubated for 5 days. Small pieces of rhodamine isothiocyanate crystals (Sigma) were inserted at two or three places into each hind limb thigh and the egg hole was sealed with a cellophane tape. The eggs were incubated for another 24 hrs. Some of the operated embryos were then processed for frozen sections after formaldehyde fixation. […] The other embryos were used for cell preparation using the method described above (18.1.1). After 5 hrs in culture cells were rinsed with warm HBSS, fixed with 4% formaldehyde in PBS at room temperature for 20 min, rinsed with PBS and then mounted in glycerol-PBS (1:1) with glass coverslips. Of the total cells approximately 83% were labeled and identified as motorneurons (FIG. 42.) Most of these labeled motorneurons were large cells and the rest were intermediate-size cells. No small cells were labeled. On the other hand, in experiments in which cells were not labeled with a fluorescent dye about 70% of the total cells were large phase-bright cells with round cell somas, about 20% were intermediate-size neurons (most of them may be motorneurons) and about 10% were small immature neurons (they have neuron-like processes with growth cones but have phase-dark semi-flat cell somas). Non-neuronal cells were either not present or accounted for less than 2%. Taken together, one may conclude that at least 83% of the cells are motorneurons while the remainder consists of non-labeled motorneurons, a small number of unidentified intermediate-size neurons and about 10% immature small neurons. […]

| Molecule | lowest concentration at which activity was detectable ([1]; dissociated, neuron-enriched E8 chick ciliary ganglion cultures) [pg/mL] | EC50 ([1]; neuronal survival, E8 chick ciliary ganglion cultures) [ng/mL] | biological activity [2] | Survival [3] | survival effect on motoneurons [3] |
| --- | --- | --- | --- | --- | --- |
| CNTF purified from rat sciatic nerve: native CNTF protein purified from rat sciatic nerve (protein, UniProt P20294 1-200, looked up) Ciliary neurotrophic factor: MAFAEQTPLTLHRRDLCSRSIWLARKIRSDLTALMESYVKHQGLNKNINLDSVDGVPVASTDRWSEMTEAERLQENLQAYRTFQGMLTKLLEDQRVHFTPTEGDFHQAIHTLMLQVSAFAYQLEELMVLLEQKIPENEADGMPATVGDGGLFEKKLWGLKVLQELSQWTVRSIHDLRVISSHQMGISALESHYGAKDKQM | 5 | 0.08 |  |  |  |
| pRPN108: hCNTF with alanine in place of cysteine at amino acid 17, encoded in plasmid pRPN108 (protein, UniProt P26441 1-200, looked up, variant C17A) Ciliary neurotrophic factor: MAFTEHSPLTPHRRDLASRSIWLARKIRSDLTALTESYVKHQGLNKNINLDSADGMPVASTDQWSELTEAERLQENLQAYRTFHVLLARLLEDQQVHFTPTEGDFHQAIHTLLLQVAAFAYQIEELMILLEYKIPRNEADGMPINVGDGGLFEKKLWGLKVLQELSQWTVRSIHDLRFISSHQTGIPARGSHYIANNKKM |  |  | as active as the full length protein |  |  |
| IFNc: IFNc (rat, rec.) (protein, UniProt P01581 23-156, looked up) Interferon gamma: QGTLIESLESLKNYFNSSSMDAMEGKSLLLDIWRNWQKDGNTKILESQIISFYLRLFEVLKDNQAISNNISVIESHLITNFFSNSKAKKDAFMSIAKFEVNNPQIQHKAVNELIRVIHQLSPESSLRKRKRSRC |  |  |  | − | no discernable effect |
| NT-3: neurotrophic molecule of the NGF-BDNF gene family, produced by transfected Cos-cells (protein, UniProt P20783 139-257, looked up) Neurotrophin-3: YAEHKSHRGEYSVCDSESLWVTDKSSAIDIRGHQVTVLGEIKTGNSPVKQYFYETRCKEARPVKNGCRGIDDKHWNSQCKTSQTYVRALTSENNKLVGWRWIRIDTSCVCALSRKIGRT |  |  |  | − | did not appear to have a survival effect |
| bNGF: bNGF (mouse) (protein, UniProt P01139 122-241, looked up, Beta-nerve growth factor) Beta-nerve growth factor: SSTHPVFHMGEFSVCDSVSVWVGDKTTATDIKGKEVTVLAEVNINNSVFRQYFFETKCRASNPVESGCRGIDSKHWNSYCTTTHTFVKALTTDEKQAAWRFIRIDTACVCVLSRKATRRG |  |  |  | − | no discernable effect |
| EGF: EGF (mouse) (protein, UniProt P01132 29-1217, looked up, Pro-epidermal growth factor) Pro-epidermal growth factor: WQTGNCQPGPLERSERSGTCAGPAPFLVFSQGKSISRIDPDGTNHQQLVVDAGISADMDIHYKKERLYWVDVERQVLLRVFLNGTGLEKVCNVERKVSGLAIDWIDDEVLWVDQQNGVITVTDMTGKNSRVLLSSLKHPSNIAVDPIERLMFWSSEVTGSLHRAHLKGVDVKTLLETGGISVLTLDVLDKRLFWVQDSGEGSHAYIHSCDYEGGSVRLIRHQARHSLSSMAFFGDRIFYSVLKSKAIWIANKHTGKDTVRINLHPSFVTPGKLMVVHPRAQPRTEDAAKDPDPELLKQRGRPCRFGLCERDPKSHSSACAEGYTLSRDRKYCEDVNECATQNHGCTLGCENTPGSYHCTCPTGFVLLPDGKQCHELVSCPGNVSKCSHGCVLTSDGPRCICPAGSVLGRDGKTCTGCSSPDNGGCSQICLPLRPGSWECDCFPGYDLQSDRKSCAASGPQPLLLFANSQDIRHMHFDGTDYKVLLSRQMGMVFALDYDPVESKIYFAQTALKWIERANMDGSQRERLITEGVDTLEGLALDWIGRRIYWTDSGKSVVGGSDLSGKHHRIIIQERISRPRGIAVHPRARRLFWTDVGMSPRIESASLQGSDRVLIASSNLLEPSGITIDYLTDTLYWCDTKRSVIEMANLDGSKRRRLIQNDVGHPFSLAVFEDHLWVSDWAIPSVIRVNKRTGQNRVRLQGSMLKPSSLVVVHPLAKPGADPCLYRNGGCEHICQESLGTARCLCREGFVKAWDGKMCLPQDYPILSGENADLSKEVTSLSNSTQAEVPDDDGTESSTLVAEIMVSGMNYEDDCGPGGCGSHARCVSDGETAECQCLKGFARDGNLCSDIDECVLARSDCPSTSSRCINTEGGYVCRCSEGYEGDGISCFDIDECQRGAHNCGENAACTNTEGGYNCTCAGRPSSPGLSCPDSTAPSLLGEDGHHLDRNSYPGCPSSYDGYCLNGGVCMHIESLDSYTCNCVIGYSGDRCQTRDLRWWELRHAGYGQKHDIMVVAVCMVALVLLLVLGMWGTYYYRTRKQLSNPPKNPCDEPSGSVSSSGPNSSSGAAVASCPQPWFVVLEKHQDPKNGSLPADGTNGAVVDAGLSPSLQLGSVHLTSWRQKPHIDGMGTGQSCWIPPSSDRGPQEIEGNSHLPSYRPVGPEKLHSLQSANGSCHERAPDLPRQTEPVQ |  |  |  | − | no discernable effect |
| IL-6: IL-6 (mouse, rec.) (protein, UniProt P08505 25-211, looked up) Interleukin-6: FPTSQVRRGDFTEDTTPNRPVYTTSQVGGLITHVLWEIVEMRKELCNGNSDCMNNDDALAENNLKLPEIQRNDGCYQTGYNQEICLLKISSGLLEYHSYLEYMKNNLKDNKKDKARVLQRDTETLIHIFNQEVKDLHKIVLPTPISNALLTDKLESQKEWLRTKTIQFILKSLEEFLKVTLRSTRQT |  |  |  | − | no discernable effect |

Reference: patent US6602687B1, “DNA encoding human ciliary neurotrophic factor and method for producing the protein encoded thereby” (Regeneron Pharmaceuticals, Inc., priority 1989, dated 2003)
